# Data as given in the supplement of paper PMC11246515.
# ± gives the standard deviation of the averaged measurements.
# Experiment: total protein half-life in vivo (active degradation + dilution); higher = more stable protein
# [1] = E. coli NCM3722 delta-clpP delta-lon delta-hslV, growth: N-lim chemostat, doubling time 6 h
# [2] = E. coli NCM3722 delta-clpP, growth: N-lim chemostat, doubling time 6 h
# [3] = E. coli NCM3722 delta-hslV, growth: N-lim chemostat, doubling time 6 h
# [4] = E. coli NCM3722 delta-lon, growth: N-lim chemostat, doubling time 6 h
# [5] = E. coli NCM3722 delta-smpB, growth: N-lim chemostat, doubling time 6 h
# [6] = wild type E. coli NCM3722, growth: C-lim chemostat, doubling time 3 h
# [7] = wild type E. coli NCM3722, growth: C-lim chemostat, doubling time 6 h
# [8] = wild type E. coli NCM3722, growth: C-lim chemostat, doubling time 12 h
# [9] = wild type E. coli NCM3722, growth: N-lim chemostat, doubling time 6 h
# [10] = wild type E. coli NCM3722, growth: N-lim chemostat, doubling time 12 h
# [11] = wild type E. coli NCM3722, growth: P-lim chemostat, doubling time 6 h
# [12] = wild type E. coli NCM3722, growth: P-lim chemostat, doubling time 12 h
Sequence,total protein half-life in vivo [1] [h],total protein half-life in vivo [2] [h],total protein half-life in vivo [3] [h],total protein half-life in vivo [4] [h],total protein half-life in vivo [5] [h],total protein half-life in vivo [6] [h],total protein half-life in vivo [7] [h],total protein half-life in vivo [8] [h],total protein half-life in vivo [9] [h],total protein half-life in vivo [10] [h],total protein half-life in vivo [11] [h],total protein half-life in vivo [12] [h]
MEFSVKSGSPEKQRSACIVVGVFEPRRLSPIAEQLDKISDGYISALLRRGELEGKPGQTLLLHHVPNVLSERILLIGCGKERELDERQYKQVIQKTINTLNDTGSMEAVCFLTELHVKGRNNYWKVRQAVETAKETLYSFDQLKTNKSEPRRPLRKMVFNVPTRRELTSGERAIQHGLAIAAGIKAAKDLGNMPPNICNAAYLASQARQLADSYSKNVITRVIGEQQMKELGMHSYLAVGQGSQNESLMSVIEYKGNASEDARPIVLVGKGLTFDSGGISIKPSEGMDEMKYDMCGAAAVYGVMRMVAELQLPINVIGVLAGCENMPGGRAYRPGDVLTTMSGQTVEVLNTDAEGRLVLCDVLTYVERFEPEAVIDVATLTGACVIALGHHITGLMANHNPLAHELIAASEQSGDRAWRLPLGDEYQEQLESNFADMANIGGRPGGAITAGCFLSRFTRKYNWAHLDIAGTAWRSGKAKGATGRPVALLAQFLLNRAGFNGEE,6.37 ± 0.15,6.34 ± 0.31,6.11 ± 0.078,7.01 ± 0.64,5.81 ± 0.16,3.38 ± 0.097,6.45 ± 0.3,11.7 ± 1,6.215 ± 0.053,12.7 ± 1.1,6.33 ± 0.09,12.7 ± 0.79
MTPDELARLTGYSRQTINKWVRKEGWTTSPKPGVQGGKARLVHVNEQVREYIRNAERPEGQGEAPALSGDAPLEVLLVTLAKEMTPVEQKQFTSLLLREGIIGLLQRLGIRDSK [P0AD37],–,–,–,–,–,1.89,–,–,–,–,–,–
MLIIKRSVAIIAILFSPLSTASNLTSQLHNFFSAQLAGVSDEVRVSIRTAPNLLPPCEQPLLSMSNNSRLWGNVNVLARCGNDKRYLQVNVQATGNYVVAAMPIARGGKLEAGNVKLKRGRLDTLPPRTVLDINQLVDAISLRDLSPDQPIQLTQFRQAWRVKAGQRVNVIASGDGFSANAEGQALNNAAVAQNARVRMVSGQVVSGVVDADGNILINL,–,–,–,–,–,0.905 ± 0.37,–,2.23,–,–,–,–
MSIKLIAVDMDGTFLSDQKTYNRERFMAQYQQMKAQGIRFVVASGNQYYQLISFFPEIANEIAFVAENGGWVVSEGKDVFNGELSKDAFATVVEHLLTRPEVEIIACGKNSAYTLKKYDDAMKTVAEMYYHRLEYVDNFDNLEDIFFKFGLNLSDELIPQVQKALHEAIGDIMVSVHTGNGSIDLIIPGVHKANGLRQLQKLWGIDDSEVVVFGDGGNDIEMLRQAGFSFAMENAGSAVVAAAKYRAGSNNREGVLDVIDKVLKHEAPFDQ,4.81 ± 0.67,2.026 ± 0.013,1.78 ± 0.4,2.53 ± 0.083,1.92 ± 0.13,2.44 ± 0.25,3.96 ± 0.16,6.88 ± 0.18,2.08 ± 0.059,2.73 ± 0.66,2.7 ± 0.7,7.59 ± 3.2
MRVITLAGSPRFPSRSSSLLEYAREKLNGLDVEVYHWNLQNFAPEDLLYARFDSPALKTFTEQLQQADGLIVATPVYKAAYSGALKTLLDLLPERALQGKVVLPLATGGTVAHLLAVDYALKPVLSALKAQEILHGVFADDSQVIDYHHRPQFTPNLQTRLDTALETFWQALHRRDVQVPDLLSLRGNAHA,4.66 ± 0.17,–,–,1.83,–,–,–,–,–,–,–,–
MSKCSADETPVCCCMDVGTIMDNSDCTASYSRVFANRAEAEQTLAALTEKARSVESEPCKITPTFTEESDGVRLDIDFTFACEAEMLIFQLGLR [P0AD33],5.299 ± 0.023,–,2.32 ± 0.13,2.77 ± 0.89,2.37 ± 0.099,2.3 ± 0.11,4.14 ± 0.23,8.27 ± 4.1,2.09 ± 0.35,3.61 ± 0.46,5.25 ± 0.11,8.88 ± 0.45
MMNTEGNNGNKPLGLWNVVSIGIGAMVGAGIFALLGQAALLMEASTWVAFAFGGIVAMFSGYAYARLGASYPSNGGIIDFFRRGLGNGVFSLALSLLYLLTLAVSIAMVARAFGAYAVQFLHEGSQEEHLILLYALGIIAVMTLFNSLSNHAVGRLEVILVGIKMMILLLLIIAGVWSLQPAHISVSAPPSSGAFFSCIGITFLAYAGFGMMANAADKVKDPQVIMPRAFLVAIGVTTLLYISLALVLLSDVSALELEKYADTAVAQAASPLLGHVGYVIVVIGALLATASAINANLFAVFNIMDNMGSERELPKLMNKSLWRQSTWGNIIVVVLIMLMTAALNLGSLASVASATFLICYLAVFVVAIRLRHDIHASLPILIVGTLVMLLVIVGFIYSLWSQGSRALIWIIGSLLLSLIVAMVMKRNKTV,–,6.11,–,–,–,–,–,–,–,–,–,–
MKISPSLMCMDLLKFKEQIEFIDSHADYFHIDIMDGHFVPNLTLSPFFVSQVKKLATKPLDCHLMVTRPQDYIAQLARAGADFITLHPETINGQAFRLIDEIRRHDMKVGLILNPETPVEAMKYYIHKADKITVMTVDPGFAGQPFIPEMLDKLAELKAWREREGLEYEIEVDGSCNQATYEKLMAAGADVFIVGTSGLFNHAENIDEAWRIMTAQILAAKSEVQPHAKTA,–,–,–,–,–,0.597,–,–,–,–,–,–
MDIFISKKMRNFILLAQTNNIARAAEKIHMTASPFGKSIAALEEQIGYTLFTRKDNNISLNKAGQELYQKLFPVYQRLSAIDNEIHNSGRRSREIVIGIDNTYPTIIFDQLISLGDKYEGVTAQPVEFSENGVIDNLFDRQLDFIISPQHVSARVQELENLTISELPPLRLGFLVSRRYEERQEQELLQELPWLQMRFQNRANFEAMIDANMRPCGINPTIIYRPYSFMAKISAVERGHFLTVIPHFAWRLVNPATLKYFDAPHRPMYMQEYLYSIRNHRYTATMLQHIAEDRDGTSH,5.12,–,–,–,–,–,–,–,–,9.66,–,–
MADITLISGSTLGGAEYVAEHLAEKLEEAGFTTETLHGPLLEDLPASGIWLVISSTHGAGDIPDNLSPFYEALQEQKPDLSAVRFGAIGIGSREYDTFCGAIDKLEAELKNSGAKQTGETLKINILDHDIPEDPAEEWLGSWVNLLK,3.22 ± 0.1,2.99,2.93 ± 0.18,3.47 ± 0.17,2.78 ± 0.15,2.86 ± 0.48,4.66 ± 0.56,9.28 ± 2,2.67 ± 0.13,3.68 ± 0.24,5.07 ± 0.09,9.52 ± 0.099
